Experimental data as given in paper PMC9487866 (Immunity, 2022).

Molecular target: Pfs48/45-6C wild type (Plasmodium falciparum 3D7, UniProt Q8I6T1)
Test: BLI
Settings: both partners purified

Sequence of Pfs48/45-6C wild type (Q8I6T1 291-428): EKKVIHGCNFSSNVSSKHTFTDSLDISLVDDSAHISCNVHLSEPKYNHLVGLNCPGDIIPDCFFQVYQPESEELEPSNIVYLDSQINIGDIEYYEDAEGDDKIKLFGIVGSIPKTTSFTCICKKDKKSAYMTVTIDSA

B1: TB31F Fab (Fab, V domains shown)
VH: EVQLVQSGGGLVQPGGSLRLSCAASGFTFNNYWMSWVRQAPGKGLEWVSSISNIGGTIYYPDSVKGRFTISRDNSKNTLYLQMNSLRAEDTAVYYCTRDLRMSDYFDYWGQGTMVTVSS
VL: NFMLTQPHSVSESPGKTVTISCTRSTGNIGSNYVSWYQQRPGSSPTTVIYRDDQRPSGVPDRFSGSIDRSSNSASLTISGLKTEDEADYYCHSYSTGMYIFGGGTKLTVL
Question: B1 was tested. Which Kd did it give?
Answer: The Kd was 3.1 nM.
